According to article PMC9297526:

Molecular target: human alpha-thrombin (human, UniProt P00734;P00734 328-363;364-622)
Experiment: ITC

## GGTTGGTGTGGTTGG (structured_DNA) [TBA]
  Ka: 8.46e+06 M⁻¹
